In patent US11078246B2, “Peptides binding to Bfl-1” (Dana-Farber Cancer Institute, Inc., priority 2015, dated 2021):
Substitutions are numbered along the chain they refer to. Starred links: 1 amine or outer side, 2 acyl side, 3 side chain; linkers in the order of their positions; H or OH if unused. Positions of bridges follow the written chain, without caps; N, C: chain ends. Non-standard residues stand in square brackets, D forms with d. Residues, ends and D or L forms follow the SMILES beside them. No end group written: not given here. *: point of attachment. Nip(3R) = O=C([C@@H]1CCCN([*:1])C1)[*:2]; S5 = C=CCCC[C@](C)(N)C(=O)O; code J = not defined here; Acryloyl = C=CC(=O)*

Experiments:
A375P cells = test: Cellular uptake by ImageXpress Micro epifluorescence microscopy; format: cell-based, human; details: FITC-labeled peptides, 4 h; data not shown
Method: Confocal Microscopy: A375P cells were plated in chambered coverglass (1.5×10^4 cells/well) and cultured as above. […] Cells were washed, stained with MitoTracker Red (Thermo), Hoescht 33342, and imaged live. Confocal images were collected with a Yokogawa CSU-X1 spinning disk confocal (Andor Technology) mounted on a Nikon Ti-E inverted microscope (Nikon Instruments). Images were acquired using a 100×1.4 NA Plan Apo objective lens with an Orca ER CCD camera (Hamamatsu Photonics) and 488 nm laser. Acquisition parameters, shutters, filter positions and focus were controlled by Andor iQ software (Andor Technology). […] Data were collected for five sites per well at 20× magnification, with each treatment performed in triplicate, and then analyzed and quantified using MetaXpress software. […] A custom module in MetaXpress was applied to incrementally recede the CMDR image mask from the cellular border, further restricting the analyzed FITC signal to internalized peptide. The measurement of Total Internalized Fluorescence Intensity (TIFI) represents the level of absolute fluorescence detected per cell, per peptide construct. Maximum and minimum thresholding was utilized to exclude FITC and Cy5 outliers that were much larger and brighter than average, and total intensity and average intensity per cell thresholds were set such that vehicle-treated cells scored negative by the analysis.

A375P melanoma cells = test: Cell viability (CellTiter-Glo); format: cell-based, human; details: 40 μM, over time
Method: Cell Viability, LDH Release, and Caspase-3/7 Activation Assays: Cancer cells were cultured using their standard culture media containing 10% FBS and penicillin/streptomycin (A375P: DMEM; SK-MEL-2, SK-MEL-28 and MCF-7: EMEM: A549, H929: RPMI). […] Cell viability and caspase 3/7 activation was measured using CellTiter-Glo and Caspase-Glo 3/7 chemiluminescence reagents (Promega), respectively, and luminescence detected by a microplate reader (Spectramax M5, Molecular Devices). LDH release was quantified after 30 min peptide incubation by plate centrifugation at 1500 rpm for 5 min at 4° C., transfer of 100 μL cell culture media to a clear plate (Corning), incubation with 100 μL LDH reagent (Roche) for 30 min while shaking, and measurement of absorbance at 490 nm on a Spectramax M5 microplate reader. Mitochondrial Cytochrme c Release and Biotinylation Assays: A375P cells were plated in 6-well Corning plates (3×10^5 cells/well) and cultured as above. […] Briefly, pelleted cells were resuspended at 1×10^7 cells/mL in permeabilization buffer (20 mM HEPES/KOH pH 7.5, 250 mM sucrose, 50 mM KCl, 2.5 mM MgCl2) supplemented with 0.025% digitonin and protease inhibitors, followed by incubation on ice for 10 min and centrifugation at 13,000 g.

[1] = test system: mouse embryonic fibroblasts (MEFs); test: Cellular uptake by ImageXpress Micro epifluorescence microscopy; format: cell-based; details: FITC-labeled peptides, 4 h; data not shown
HA-BFL-1ΔC C4S/C19S = biological target: T1, HA-BFL-1ΔC C4S/C19S (Homo sapiens, UniProt Q16548, C19S/C4S); test: Crosslinking in lysates of transfected 293T cells; format: binding; details: 293T lysate
T1 construct: cDNA encoding BFL-1ΔC (aa 1-153) was cloned into the pET19b expression vector; expressed in transfected cells; host or cells: 293T
T1 sequence (Q16548 1-153 C4S/C19S): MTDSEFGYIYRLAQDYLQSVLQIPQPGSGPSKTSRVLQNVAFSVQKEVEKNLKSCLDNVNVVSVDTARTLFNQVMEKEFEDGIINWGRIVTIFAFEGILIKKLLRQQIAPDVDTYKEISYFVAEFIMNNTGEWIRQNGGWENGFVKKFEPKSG
Method: 293T cells were maintained in DMEM containing 10% FBS and penicillin/streptomycin, and transfections performed with 2 μg pCMV plasmid containing HA-BFL-1ΔC C4S/C19S using X-tremeGENE 9 (Roche). For lysate experiments, cells were trypsinized 24 hours post-transfection, washed with PBS, and lysed by incubation with 1% CHAPS lysis buffer (150 mM NaCl, 50 mM Tris pH 7.4, 100 mM DTT). Protein concentration of the soluble fraction was measured using a BCA kit according to manufacturer's instructions (Thermo Scientific). […] Samples were then boiled in LDS buffer and subjected to western analysis using 1:1000 dilutions of HA (Sigma-Aldrich. #12CA5) and biotin (Abcam, #53494) antibodies. To evaluate the capacity of biotinylated SAHBs to compete with tBID for interactions with BFL-1 and MCL-1, 293T cells were transfected with either HA-BFL-1ΔC C4S/C19S or FLAG-MCL-1 in the p3XFLAG-CMV-10 vector (Sigma) as above. After 24 h, cells were trypsinized, washed with PBS, lysed in 1% CHAPS buffer, and the supernatant collected for protein concentration determination by BCA kit. […] The mixtures were then subjected to HA or FLAG (Sigma-Aldrich, F7425) immunoprecipitation, followed by western analysis using 1:1000 dilutions of HA, FLAG, biotin, and BID (Santa Cruz sc-11423) antibodies. […] Cells were harvested and lysed as above, and incubated overnight with anti-HA agarose beads (Pierce). […]

His-BFL-1ΔC = biological target: T2, His-BFL-1ΔC (Homo sapiens, UniProt Q16548); test: Streptavidin pull-down from anti-apoptotic protein mixture; format: binding; details: 1:1:1:1 mixture, 1 μM each, biotinylated SAHB; relative to SAHB without warhead
T2 construct: cDNA encoding BFL-1ΔC (aa 1-153) was cloned into the pET19b expression vector; made in house; host or cells: Escherichia coli BL21(DE3) LOBSTR
T2 sequence (Q16548 1-153): T1 sequence (Q16548 1-153 C4S/C19S) with S4C, S19C
Method: (§1) Streptavidin Pull-down: Recombinant His-BFL-1ΔC, BCL-XLΔC (tagless) and GST-MCL-1ΔNΔC (1 μM each) were combined and reduced with 3 mM DTT in PBS for 30 min at RT, and then incubated with 1 μM biotinylated SAHBA, SAHBA-3 or vehicle for 4 h at RT. The mixtures were then combined with PBS-washed high-capacity SA agarose (Thermo Fisher Pierce) and incubated with rotation for 2 h at RT. The beads were centrifuged at 3000 rpm, washed twice with NP-40 lysis buffer (1% NP40, 50 mM Tris pH 8.0, 100 mM NaCl, 2.5 mM MgCl2), once with PBS, and then bound protein eluted by boiling in 10% SDS containing 10 mg/mL biotin. Inputs (10%) and eluates were electrophoresed on a 12% Bis-Tris gel and then subjected to silver stain and imaging.

GST-MCL-1ΔNΔC = biological target: T3, GST-MCL-1ΔNΔC (Homo sapiens, UniProt Q07820); test: as above; format: binding; details: 1:1:1:1 mixture, 1 μM each, biotinylated SAHB
T3 construct: MCL-1ΔNΔC (aa 170-327) and BCL-XLΔC (aa 1-212) constructs were cloned into pGEX-4T-1; made in house; host or cells: Escherichia coli BL21(DE3)
Method: as §1

BCL-XLΔC = biological target: T4, BCL-XLΔC (Homo sapiens, UniProt Q07817); test: Covalent conjugation assay of warhead-bearing SAHBs; format: binding
T4 construct: MCL-1ΔNΔC (aa 170-327) and BCL-XLΔC (aa 1-212) constructs were cloned into pGEX-4T-1; GST (N, cleaved yes); made in house; host or cells: Escherichia coli BL21(DE3)

BFL-1ΔC [2] = biological target: T5, BFL-1ΔC (Homo sapiens, UniProt Q16548); test: Liposomal release assay with SAHBA-3/BFL-1ΔC conjugates; format: biochemical; details: BFL-1ΔC covalently conjugated to the peptide, 1.5 μM
T5 construct: cDNA encoding BFL-1ΔC (aa 1-153) was cloned into the pET19b expression vector; made in house; host or cells: Escherichia coli BL21(DE3) LOBSTR
T5 sequence (Q16548 1-153): T1 sequence (Q16548 1-153 C4S/C19S) with S4C, S19C
Method: as §1, with “Inputs (10%) and eluates were electrophoresed on a 12% Bis-Tris gel and then subjected to silver stain and imaging.” left out
Large unilamellar vesicles (LUVs) with encapsulated ANTS and DPX were generated and purified as described (Leshchiner et al., 2013; Lovell et al., 2008). The indicated combinations of BAX (400 nM), tBID (40 nM), and BFL-1ΔC or SAHBA-3/BFL-1ΔC conjugates (1.5 μM), were added to liposomes (5 μL) in 384 well plates (final volume, 30 μL), and released fluorophore was measured over 120 min using an M1000 Infinite plate reader (Tecan) with excitation and emission wavelengths of 355 nm and 520 nm, respectively. […] Percent ANTS/DPX release was calculated as [(F−F0)/(F100−F0)]×100, where F0 is baseline fluorescence at time 0, F is the fluorescence recorded for each time point, and F100 is the maximum amount of ANTS/DPX release based on liposomal treatment with 1% Triton X-100.

BFL-1ΔC [3] = test: Covalent conjugation assay of warhead-bearing SAHBs; format: binding, human
Method: For warhead-bearing SAHBs, His-BFL-1ΔC C4S/C19S protein was pretreated with 10 mM DTT in 50 mM Tris pH 8.0, 100 mM NaCl for 30 min at RT (final volume, 9.5 μL), and then combined with a 10:1 molar ratio of NOXA SAHBA or BIM SAHBA peptides bearing warheads 1-8 (final volume, 10 μL) for an additional 2 h incubation at RT. Processing for gel electrophoresis and Coomassie staining was performed as above.

MCL-1ΔNΔC = biological target: T6, MCL-1ΔNΔC (Homo sapiens, UniProt Q07820); test: as above; format: binding
T6 construct: MCL-1ΔNΔC (aa 170-327) and BCL-XLΔC (aa 1-212) constructs were cloned into pGEX-4T-1; GST (N, cleaved yes); made in house; host or cells: Escherichia coli BL21(DE3)
Method: Processing for gel electrophoresis and Coomassie staining was performed as above.

T4 sequence (Q07817 1-212, stated change not applied): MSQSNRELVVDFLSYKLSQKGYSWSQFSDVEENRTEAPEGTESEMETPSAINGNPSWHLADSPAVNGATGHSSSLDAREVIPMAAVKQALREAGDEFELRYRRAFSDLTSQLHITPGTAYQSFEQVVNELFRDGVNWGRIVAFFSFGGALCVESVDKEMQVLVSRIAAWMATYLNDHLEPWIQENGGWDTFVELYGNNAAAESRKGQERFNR
T3 sequence (Q07820 170-327, stated change not applied): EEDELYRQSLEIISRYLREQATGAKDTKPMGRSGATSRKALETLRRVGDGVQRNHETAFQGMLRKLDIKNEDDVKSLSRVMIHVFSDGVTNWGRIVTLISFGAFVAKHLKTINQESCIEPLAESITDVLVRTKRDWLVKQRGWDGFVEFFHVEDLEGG
T6 sequence (Q07820 170-327, stated change not applied): as above

## C=CC(=O)N1CCC[C@@H](C(=O)N[C@H](C(=O)N[C@@H](C)C(=O)N[C@@H](CCC(N)=O)C(=O)N[C@@H](CCC(=O)O)C(=O)N[C@@H](CC(C)C)C(=O)N[C@@H](CCCNC(=N)N)C(=O)N[C@@]2(C)CCCC=CCCC[C@@](C)(C(=O)N[C@@H](Cc3ccccc3)C(=O)N[C@@H](CC(N)=O)C(=O)N[C@@H](C)C(=O)N[C@@H](Cc3ccc(O)cc3)C(=O)N[C@@H](Cc3ccc(O)cc3)C(=O)N[C@@H](C)C(=O)N[C@@H](CCCNC(=N)N)C(=O)N[C@@H](CCCNC(=N)N)C(N)=O)NC(=O)[C@H](CC(=O)O)NC(=O)CNC(=O)[C@H]([C@@H](C)CC)NC2=O)[C@@H](C)CC)C1 [BIM SAHBA-3] (Acryloyl-[Nip(3R)]IAQELR[S5]IGD[S5]FNAYYARR-NH2; staple 8-12; N-terminus and C-terminus assumed)
A375P cells
  cellular uptake: equivalent cellular uptake
A375P melanoma cells
  cytotoxicity compared to BIM SAHBA1: significant enhancement in cytotoxicity over time
[1]
  cellular uptake: equivalent cellular uptake

## NOXA SAHBA-3: NOXA SAHBA (aa 21-43) capped at L21 with D-nipecotic acid acrylamide warhead 3; JEVESATQLRXFGDXLNFRQKLL (SEQ ID NO:24) ([code J]EVESATQLR[S5]FGD[S5]LNFRQKLL; staple 11-15; reading uncertain)
HA-BFL-1ΔC C4S/C19S
  reactivity with other lysate proteins (biotin western): little to no non-specific reactivity
HA-BFL-1ΔC C4S/C19S; biotinylated peptide 10 μM, 2 h
  molecular weight shift of HA-BFL-1ΔC C4S/C19S (anti-HA western): prominent molecular weight shifts
His-BFL-1ΔC
  BFL-1ΔC engagement in SA pull-down: notably more
GST-MCL-1ΔNΔC
  MCL-1ΔNΔC engagement in SA pull-down: relatively less
BCL-XLΔC
  reactivity with BCL-XLΔC: did not react
BFL-1ΔC [2]
  BFL-1ΔC suppression of tBID-triggered BAX-mediated liposomal release: the inhibitory function of BFL-1 was lost
BFL-1ΔC [3]
  reactivity with BFL-1 constructs WT, C4S/C19S, C55S, C4S/C19S/C55S: exclusive reactivity with the WT and BFL-1 C4S/C19S constructs
MCL-1ΔNΔC
  reactivity with MCL-1ΔNΔC: did not react
